In experiment [1] the target is T1, KW27-19 (human CD39 mutant, C-terminal EGFP) (human, UniProt P49961 1-510).
T1 construct: expressed on HEK293F cells; not shown: C-terminal EGFP fusion (vector pCMV3-GFPSpark)
T1 chain: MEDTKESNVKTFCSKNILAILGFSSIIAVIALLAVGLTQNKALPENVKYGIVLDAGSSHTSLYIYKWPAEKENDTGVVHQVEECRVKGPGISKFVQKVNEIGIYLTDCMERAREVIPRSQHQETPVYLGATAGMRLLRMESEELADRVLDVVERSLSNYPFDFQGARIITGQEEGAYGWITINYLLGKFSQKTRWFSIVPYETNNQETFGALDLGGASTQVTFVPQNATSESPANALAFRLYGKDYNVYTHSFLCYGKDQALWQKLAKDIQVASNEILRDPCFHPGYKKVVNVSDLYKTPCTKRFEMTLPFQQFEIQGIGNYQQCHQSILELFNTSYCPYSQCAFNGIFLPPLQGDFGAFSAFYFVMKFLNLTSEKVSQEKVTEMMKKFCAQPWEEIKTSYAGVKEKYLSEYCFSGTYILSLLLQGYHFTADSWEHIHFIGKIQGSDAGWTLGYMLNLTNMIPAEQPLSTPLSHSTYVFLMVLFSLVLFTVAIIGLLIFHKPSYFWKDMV
The experiment in a line: FACS, mutant-EGFP on HEK293F cells. The protocol:
(§1) Briefly, the human CD39 mutants were generated by gene synthesis and then cloned into an expression vector pCMV3-GFPSpark. The vectors containing the validated mutated sequences were prepared and transfected into HEK293F cells. Three days post transfection, the cells were collected to testing EGFP for transgene expression. A range of dosages of antibodies (start from 100 nM, 3-folds dilution, 11 points) were tested on the 20 generated mutants and stained by AlexFluor647 labelled anti-hIgG by FACS. Antibody binding was descripted as relative binding which is derived from AlexFluor647 intensity divided by GFP intensity.
A general note: A flow cytometer gives signals particle by particle.

Experiment [2] has as its target T2, KW27-7 (human CD39 mutant, C-terminal EGFP) (human, UniProt P49961 1-510).
T2 construct: expressed on HEK293F cells; K188R and residues 190-206 substituted by KTPGGS; not shown: C-terminal EGFP fusion (vector pCMV3-GFPSpark)
T2 chain: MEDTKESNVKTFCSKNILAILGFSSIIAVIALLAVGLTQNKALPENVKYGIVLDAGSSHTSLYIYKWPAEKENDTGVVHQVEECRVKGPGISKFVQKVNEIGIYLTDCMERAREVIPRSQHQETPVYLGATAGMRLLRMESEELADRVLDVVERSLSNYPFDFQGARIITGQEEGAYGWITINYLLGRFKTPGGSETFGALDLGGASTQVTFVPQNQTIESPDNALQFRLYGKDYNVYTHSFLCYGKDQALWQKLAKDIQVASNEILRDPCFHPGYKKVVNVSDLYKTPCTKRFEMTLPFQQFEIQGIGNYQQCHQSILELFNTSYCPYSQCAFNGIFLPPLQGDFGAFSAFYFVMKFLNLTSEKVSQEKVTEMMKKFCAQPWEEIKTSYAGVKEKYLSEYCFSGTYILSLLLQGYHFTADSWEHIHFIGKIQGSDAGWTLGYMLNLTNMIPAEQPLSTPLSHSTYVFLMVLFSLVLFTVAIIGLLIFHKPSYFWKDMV
The experiment in a line: FACS, mutant-EGFP on HEK293F cells. As to the method: as §1

Experiment [3] addresses T3, human CD39 (protein; form not stated) (human, UniProt P49961 38-478, limits assumed).
T3 construct: also called ENTPD1; ENTPDase 1
T3 sequence: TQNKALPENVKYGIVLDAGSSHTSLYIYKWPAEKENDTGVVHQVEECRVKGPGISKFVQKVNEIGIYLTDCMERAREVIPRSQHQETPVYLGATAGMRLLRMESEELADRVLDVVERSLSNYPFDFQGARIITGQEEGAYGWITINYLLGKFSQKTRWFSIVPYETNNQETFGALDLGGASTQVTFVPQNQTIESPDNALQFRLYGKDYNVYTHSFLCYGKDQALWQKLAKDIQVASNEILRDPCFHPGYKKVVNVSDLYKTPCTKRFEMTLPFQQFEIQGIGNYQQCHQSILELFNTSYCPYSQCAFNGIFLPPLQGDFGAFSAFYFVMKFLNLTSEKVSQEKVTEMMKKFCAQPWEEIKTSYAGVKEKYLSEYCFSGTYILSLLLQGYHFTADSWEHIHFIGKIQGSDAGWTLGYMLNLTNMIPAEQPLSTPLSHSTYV
The experiment in a line: Octet (BLI), antibody on sensor, CD39 in solution. The protocol: Briefly, the antibodies were coupled on sensors and then the sensors were dipped into CD39 gradients (start at 200 nM, with 2-fold dilution and totally 8 doses). Their binding responses were measured in real-time and results were fit globally.
(In general: In BLI a coated tip is dipped into the sample, and binding shifts an interference pattern.)

The target of experiment [4] is T4, KW27-2 (human CD39 mutant, C-terminal EGFP) (human, UniProt P49961 1-510).
T4 construct: expressed on HEK293F cells; not shown: C-terminal EGFP fusion (vector pCMV3-GFPSpark)
T4 chain: T1 chain with V81S, E82A, R111A, V115A, A228Q, S230I, A234D, A238Q
The experiment can be described thus: FACS on transfected HEK293F cells, relative binding = AlexaFluor647 / GFP. The protocol:
as §1

Data on five molecules can be found in patent US20210388105A1 (ELPISCIENCE SUZHOU BIOPHARMA, published 2021).

Changes are numbered by the printed parent chain.

B1: c35 (antibody, V domains shown)
VH: EVRLQQSGAELVKPGASVKLSCTASGFNIEDTYVHWMKQRPEQGLEWIGRIDPAIDNSKYDPKFQGKATITAVSSSNTAYLQLSSLTSEDTAVYYCALYDGYNVYAMDYWGQGTSVTVSS
VL: DIVMTQAAFSNPVTLGTSASISCRSSKNLLHSNGITYLYWYLQRPGQSPQLLIYRASTLASGVPNRFSGSESGTDFTLRISRVEAEDVGVYYCAQLLELPHTFGGGTKLEIK
notes: its making is not described; also called chimeric antibody c35
Consider B1, for which the binding result in experiment [1] and in experiment [2] was “binds” throughout.

B2: Antibody T895 (antibody, V domains shown)
VH: EVQLQQSGPELVKPGASVKMSCKASGYTFTDYNMHWVKQSHGRTLEWIGYIVPLNGGSTFNQKFKGRATLTVNTSSRTAYMELRSLTSEDSAAYYCARGGTRFAYWGQGTLVTVSA
VL: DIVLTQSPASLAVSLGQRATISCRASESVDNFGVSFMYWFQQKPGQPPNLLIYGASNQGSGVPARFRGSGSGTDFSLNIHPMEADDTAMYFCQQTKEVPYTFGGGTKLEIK
notes: also called 31895
With B2, the binding result in experiment [1], in experiment [2] and in experiment [4] was “binds” each time. Also, the Kd in experiment [3] was 6.62 nM. This molecule also displayed a koff in experiment [3] of 0.00444 s⁻¹. In experiment [3], this molecule registered a kon of 671000 M⁻¹ s⁻¹.

B3: Antibody 9-8B (antibody, V domains shown)
VH: QIQLVQSGPELKKPGETVKISCKASGYTFTHYGMNWVKQAPGKGLKWMGWINTYTGELTYADDFKGRFAFSLETSASTAYLQINNLKNEDTATYFCARRAYYRYDYVMDYWGQGTSVTVSS
VL: DIVMTQSQKFMSTSVGDRVSVTCKASHNVGTNVAWYQQKPGQSPKALIYSASYRYSGVPGRFTGSGSGTDFTLTISNVQSEDLAEYFCHQYNNYPYTFGGGTKLEIK
B3: the binding result in experiment [1], in experiment [2] and in experiment [4] was “binds” throughout. Moreover, the affinity in experiment [3], expressed as Kd, was 20.2 nM. Also, the koff in experiment [3] is 0.00243 s⁻¹. In experiment [3], this molecule had a kon of 120000 M⁻¹ s⁻¹.

B4: hu23.H5L5 (antibody, V domains shown)
VH: QVQLVQSGAEVKKPGASVKVSCKASGYNLKDTFLHWVRQAPGQGLEWMGRIDPANGNIKYDPKFQGRVTITADTSANTAYMELISLRSEDTAVYYCANSPYYYGSGYRIFDVWGQGTTVTVSS
VL: QIVLTQSPATLSLSPGERATLSCSAFSSVNYMHWYQQKPGQAPRLLIYTTSNLASGIPTRFSGSGSGTSYTLTISSLEPEDFAVYYCQQRSTYPFTFGQGTKLEIK
notes: humanized c23
For the molecule B4, in experiment [1], the binding result was “binds”. In addition, in experiment [2], the binding result is “binds”. Also, in experiment [3], the dissociation constant (Kd) turned out to be 0.687 nM, the koff was found to be 9.36e-05 s⁻¹ and the kon is 136000 M⁻¹ s⁻¹. In experiment [4], the binding result was “binds”.

B5: c34 (antibody, V domains shown)
VH: EIQVQQSGPELVKPGASVKVSCKASGYSFTDYNMYWVKQSHGKSLEWIGFIDPYNGYTSYNQKFKGKATLTIDKSSSTAFMHLNSLTSEDSAVYYCAIYGYDDAYYFDYWGQGTTLTVSS
VL: QIVLTQSPAIMSASPGEKVTITCSATSSVSYMHWFRQKPGTSPKLWIYSTSNLASGVPARFSGSGSGTSYSLTISRMAAEDAATYYCQQRITYPFTFGSGTKLEIT
notes: its making is not described; also called chimeric antibody c34
As for B5, the binding result in experiment [1], in experiment [2] and in experiment [4] was “binds” in each case.

The term Kd denotes the equilibrium constant for the complex coming apart. For orientation: koff means the first-order rate constant of dissociation. Higher therefore signals fast dissociation. In general, kon refers to the rate constant with which the complex forms. A higher kon goes with fast association.
